Measurements: US11856945B2, “Methods and systems for preparing and preserving a biological sample” (Washington University, priority 2017, dated 2024)

Legend:
Assay type in all cases: physicochemical
[1] = NGAL encapsulation efficiency in ZIF-8 crystals (ELISA of supernatant)
Description: To quantify the encapsulation efficiency, the supernatant after crystals centrifugation was collected and remaining NGAL concentration was determined using sandwich enzyme-linked immunosorbent assay (ELISA). […] The encapsulation efficiency was calculated by subtracting the remaining NGAL amount in the supernatant after encapsulation and centrifugation (concentration measured by ELISA) from the total NGAL amount.
Characterization. To characterize protein-embedded crystals, crystals were centrifuged and washed with DI water twice (8 k r.p.m. for 20 minutes). To calculate the encapsulation efficiency, the supernatant after first centrifugation was collected and assayed by ELISA. SEM images were obtained using a FEI Nova 2300 field-emission scanning electron microscope at an acceleration voltage of 10 kV. Fourier transform infrared spectroscopy (FTIR) measurements were conducted using a Nicolette Nexus 470 spectrometer. The Raman spectra were obtained using a Renishaw inVia confocal Raman spectrometer mounted on a Leica microscope with a 50× objective and a 514 nm wavelength diode laser as an illumination source. The X-ray diffraction (XRD) measurements of the samples were recorded on a Bruker D8-Advance X-ray powder diffractometer using Cu Kα radiation (λ=1.5406 Å).

[2] = Preservation of NGAL spiked in artificial urine dried on paper (ELISA)
Description: The efficacy was evaluated of ZIF-8 encapsulation in preserving NGAL upon exposure to harsh conditions (such as elevated temperatures) that would normally lead to protein denaturation and loss of biospecimen integrity. NGAL-spiked artificial urine dried on paper substrates, both with and without ZIF-8 encapsulation, was stored at 25, 40, or 60° C. for 1 week. Before analysis, the optimized elution buffer (0.2 M phosphate buffer at pH 5.6+Tween 20+EDTA, see Table 1 and FIGS. 8 and 9 for details) was used to elute NGAL from the paper substrates.
The slightly acidic environment (at or below pH 6) was employed to dissociate ZIF-8 crystals and release encapsulated NGAL via breaking coordination between the zinc ions and imidazolate. ZIF-8 encapsulated NGAL dried on the paper was almost fully eluted (>95%) whereas NGAL alone dried on the paper was only partially eluted (˜75%) (FIG. 9). It is important to note that ZIF-8 encapsulation prevented irreversible adsorption of proteins on the cellulose fibers by creating a crystal interface between the protein and paper substrate. […] NGAL concentration was tested by ELISA when NGAL was spiked in four different media. The same concentration of NGAL in phosphate-buffered saline (PBS) at pH 7.4 was set as the reference (100%). […] After storage and elution, the concentration of NGAL in the eluate was quantified using the NGAL sandwich ELISA. The preservation efficacy (preservation %) was calculated by comparing the NGAL amount in the eluate to the spiked NGAL amount in the artificial urine. […] NGAL added on a paper card was stored at 25, 40 or 60° C. for one week. […] The eluates were obtained by eluting paper cards dried with NGAL-spiked artificial urine with or without MOF encapsulation after storage at 40° C. for 1 week.
The preservation efficacy critically depended on the concentrations of 2-methylimidazole and zinc acetate (FIG. 14). […] The maximal preservation percentage was obtained using 160 mM of 2-methylimidazole and 40 mM of zinc acetate. […] A low preservation was noted upon using 40 mM 2-methylimidazole with 10 mM zinc acetate, which is attributed to incomplete encapsulation of NGAL under this condition (˜70% encapsulation of NGAL using 40 mM 2-methylimidazole with 10 mM zinc acetate, FIG. 7). Subsequently, using the optimal ZIF-8 precursor concentration (160 mM 2-methylimidazole and 40 mM zinc acetate), the storage time was extended under different temperatures up to 4 weeks (FIG. 11B). […] Different dried paper strips were sampled at selected time points (2, 3 or 4 weeks) to monitor possible changes in NGAL preservation. With ZIF-8 encapsulation, over 70% of NGAL on paper was preserved up to 4 weeks (the maximum time tested) at all three temperatures (25, 40 and 60° C.), as opposed to 20% preservation on samples without ZIF-8 encapsulation. […] Remarkably, 70% of NGAL on paper could be preserved within 4 weeks at 60° C., which represented an extremely harsh storage condition (a surrogate for long-term storage stability at room temperature).
Sample preparation. NGAL-spiked artificial urine (50 μg/ml of NGAL, 25 μl) or patient urine (25 μl) was first mixed with 2-methylimidazole aqueous solution (12.5 μl) and then zinc acetate dihydrate aqueous solution (12.5 μl). The final concentrations of 2-methylimidazole after mixing were 320 mM, 160 mM, 80 mM and 40 mM. The final concentrations of zinc acetate dihydrate after mixing were 80 mM, 40 mM, 20 mM and 10 mM. […]

[3] = Recovery/elution of NGAL from ZIF-8 crystals and paper substrates (ELISA); details: dried on paper, recovered immediately after drying; spiked NGAL amount = 100%
Description: Preliminary experiments for investigating optimal buffer to dissolve NGAL embedded ZIF-8 crystals. To completely dissolve the crystals, the final pH of the system needs to be at or below 6.0 to ensure the complete release of NGAL from ZIF-8 encapsulation. For example, in the #4 composition (0.1 M phosphate buffer at pH 6.0), the crystals cannot be completely dissolved and this leads to incomplete recovery 60%, FIG. 8). Although the initial pH of the buffer is 6.0, the basic nature of ZIF-8 precursor residue in the system increases the pH of the buffer to 6.2, leading to incomplete release and recovery.
Left bar: Recovery percentage of ZIF-8 encapsulated NGAL dried on paper using the optimized elution buffer (#9 composition, 0.2 M PBS at pH=5.6 with 2 mM EDTA and 0.1% Tween 20). Middle bar: Recovery percentage of ZIF-8 encapsulated NGAL dried on paper using the #4 composition elution buffer (0.1 M PBS at pH=6 and 0.1% Tween 20). Right bar: Recovery percentage of NGAL alone dried on paper using the conventional elution buffer recipe (PBS at pH=7.4 with 0.1% Tween 20). The samples were recovered immediately after drying. 1 ml elution buffer was used to elute each paper strip. The spiked NGAL amount was set as the reference (100% recovery).
Protein recovery. […]

B1: neutrophil gelatinase-associated lipocalin (protein, UniProt P80188 21-198, looked up)
Neutrophil …: QDSTSDLIPAPPLSKVPLQQNFQDNQFQGKWYVVGLAGNAILREDKDPQKMYATIYELKEDKSYNVTSVLFRKKKCDYWIRTFVPGCQPGEFTLGNIKSYPGLTSYLVRVVSTNYNQHAMVFFKKVSQNREYFKITLYGRTKELTSELKENFIRFSKSLGLPENHIVFPVPIDQCIDG
notes: urinary biomarker for acute kidney injury; human recombinant
In the case of B1, the “encapsulation of NGAL” value ([1]; 40 mM 2-methylimidazole with 10 mM zinc acetate) is reported as ~70%, the “encapsulation efficiency of NGAL” value ([1]; NGAL spiked in artificial urine, 40 mM zinc acetate and 160 mM 2-methylimidazole) is reported as ~95% and the “encapsulation efficiency of NGAL” value ([1]; control: mixing NGAL-spiked artificial urine with pure pre-formed ZIF-8 crystals (physical adsorption)) is reported as ~10%. The NGAL preservation ([2]; paper card, 25° C., 1 week) was “less than 30%”, the NGAL preservation ([2]; paper card, 40° C., 1 week) was “less than 30%” and the NGAL preservation ([2]; paper, 25° C., up to 4 weeks, 160 mM 2-methylimidazole and 40 mM zinc acetate) was 20%. The NGAL preservation ([2]; paper, 40° C., up to 4 weeks, 160 mM 2-methylimidazole and 40 mM zinc acetate) was 20%, the NGAL preservation ([2]; paper, 60° C., up to 4 weeks, 160 mM 2-methylimidazole and 40 mM zinc acetate) was 20% and the “elution from paper substrate” value [3] was ~75%.
